The data set deals with the molecule itself. Nature of the data set: MST.

B1: recombinant TSC22D4 (natural protein, human, UniProt Q9Y3Q8 1-395, looked up)
chain: MSGGKKKSSFQITSVTTDYEGPGSPGASDPPTPQPPTGPPPRLPNGEPSPDPGGKGTPRNGSPPPGAPSSRFRVVKLPHGLGEPYRRGRWTCVDVYERDLEPHSFGGLLEGIRGASGGAGGRSLDSRLELASLGLGAPTPPSGLSQGPTSWLRPPPTSPGPQARSFTGGLGQLVVPSKAKAEKPPLSASSPQQRPPEPETGESAGTSRAATPLPSLRVEAEAGGSGARTPPLSRRKAVDMRLRMELGAPEEMGQVPPLDSRPSSPALYFTHDASLVHKSPDPFGAVAAQKFSLAHSMLAISGHLDSDDDSGSGSLVGIDNKIEQAMDLVKSHLMFAVREEVEVLKEQIRELAERNAALEQENGLLRALASPEQLAQLPSSGVPRLGPPAPNGPSV
modifications: RED-tris-NTA dye on the His tag (labelled copy only)
As for B1, the binding result is given as “binds”.

B2: TSC22D4 I322W (natural protein, human, UniProt Q9Y3Q8 1-395, looked up)
chain: MSGGKKKSSFQITSVTTDYEGPGSPGASDPPTPQPPTGPPPRLPNGEPSPDPGGKGTPRNGSPPPGAPSSRFRVVKLPHGLGEPYRRGRWTCVDVYERDLEPHSFGGLLEGIRGASGGAGGRSLDSRLELASLGLGAPTPPSGLSQGPTSWLRPPPTSPGPQARSFTGGLGQLVVPSKAKAEKPPLSASSPQQRPPEPETGESAGTSRAATPLPSLRVEAEAGGSGARTPPLSRRKAVDMRLRMELGAPEEMGQVPPLDSRPSSPALYFTHDASLVHKSPDPFGAVAAQKFSLAHSMLAISGHLDSDDDSGSGSLVGIDNKWEQAMDLVKSHLMFAVREEVEVLKEQIRELAERNAALEQENGLLRALASPEQLAQLPSSGVPRLGPPAPNGPSV
Turning to B2, the binding result was “binds”.

For the origin of these results see article doi:10.1101/2025.05.06.651509 (bioRxiv, 2025).
